Reference: the supplement of paper PMC5998384

Columns and labels:
[1] = tested on: HeLa Kyoto; assay: solubility change mitosis vs G1/S (difference of NP-40 vs SDS log2 ratios) (log2 ratio difference); higher = more soluble in mitosis
[2] = tested on: HeLa Kyoto; assay: thermal stability score vs G1/S (z-score of summed log2 fold changes over temperatures); higher = more thermally stable than in G1/S
[3] = tested on: HeLa Kyoto; assay: solubility in G1/S (NP-40 vs SDS abundance) (log2 ratio); higher = more soluble; conditions: cell cycle stage: G1/S
[4] = tested on: HeLa Kyoto; assay: melting temperature (median over replicates), in situ; higher = more thermally stable
[5] = cell cycle stage: early G1 (4.5 h after nocodazole release)
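Wherever melting temperature (median over replicates), in situ is given: HeLa Kyoto cells synchronized by double thymidine or nocodazole block, proteins quantified by TMT10plex mass spectrometry, three independent biological replicates.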
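Wherever solubility change mitosis vs G1/S (difference of NP-40 vs SDS log2 ratios) is given: synchronized HeLa Kyoto cells (double thymidine block for G1/S, nocodazole release for mitosis), protein amounts in NP-40 versus SDS lysates quantified by mass spectrometry, three biological replicates.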
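Wherever solubility in G1/S (NP-40 vs SDS abundance) is given: HeLa Kyoto cells arrested at G1/S by double thymidine block, proteins quantified by TMT10plex mass spectrometry in mild NP-40 versus SDS extracts, three biological replicates.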
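Wherever thermal stability score vs G1/S (z-score of summed log2 fold changes over temperatures) is given: synchronized HeLa Kyoto cells, proteins quantified by TMT10plex mass spectrometry, three biological replicates, mitosis taken 0.5 h after nocodazole release, G1/S directly after double thymidine block.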

Sequence	solubility change mitosis (log2) [1]	thermal stability score [2, 5]	thermal stability score ([2]; cell cycle stage: mitosis)	solubility in G1/S (log2) [3]	melting temperature ([4]; cell cycle stage: G1/S)	melting temperature ([4]; cell cycle stage: mitosis)
MAENTEGDLNSNLLHAPYHTGDPQLDTAIGQWLRWDKNPKTKEQIENLLRNGMNKELRDRLCCRMTFGTAGLRSAMGAGFCYINDLTVIQSTQGMYKYLERCFSDFKQRGFVVGYDTRGQVTSSCSSQRLAKLTAAVLLAKDVPVYLFSRYVPTPFVPYAVQKLKAVAGVMITASHNRKEDNGYKVYWETGAQITSPHDKEILKCIEECVEPWNGSWNDNLVDTSPLKRDPLQDICRRYMEDLKKICFYRELNSKTTLKFVHTSFHGVGHDYVQLAFKVFGFKPPIPVPEQKDPDPDFSTVKCPNPEEGESVLELSLRLAEKENARVVLATDPDADRLAAAELQENGCWKVFTGNELAALFGWWMFDCWKKNKSRNADVKNVYMLATTVSSKILKAIALKEGFHFEETLPGFKWIGSRIIDLLENGKEVLFAFEESIGFLCGTSVLDKDGVSAAVVVAEMASYLETMNITLKQQLVKVYEKYGYHISKTSYFLCYEPPTIKSIFERLRNFDSPKEYPKFCGTFAILHVRDVTTGYDSSQPNKKSVLPVSKNSQMITFTFQNGCVATLRTSGTEPKIKYYAEMCASPDQSDTALLEEELKKLIDALIENFLQPSKNGLIWRSV [PGM2L1]	-0.173	0.325	-0.133	0.0482	53.4 °C	54.2 °C
MAEPSAPESKHKSSLNSSPWSGLMALGNSRHGHHGPGAQCAHKAAGGAAPPKPAPAGLSGGLSQPAGWQSLLSFTILFLAWLAGFSSRLFAVIRFESIIHEFDPWFNYRSTHHLASHGFYEFLNWFDERAWYPLGRIVGGTVYPGLMITAGLIHWILNTLNITVHIRDVCVFLAPTFSGLTSISTFLLTRELWNQGAGLLAACFIAIVPGYISRSVAGSFDNEGIAIFALQFTYYLWVKSVKTGSVFWTMCCCLSYFYMVSAWGGYVFIINLIPLHVFVLLLMQRYSKRVYIAYSTFYIVGLILSMQIPFVGFQPIRTSEHMAAAGVFALLQAYAFLQYLRDRLTKQEFQTLFFLGVSLAAGAVFLSVIYLTYTGYIAPWSGRFYSLWDTGYAKIHIPIIASVSEHQPTTWVSFFFDLHILVCTFPAGLWFCIKNINDERVFVALYAISAVYFAGVMVRLMLTLTPVVCMLSAIAFSNVFEHYLGDDMKRENPPVEDSSDEDDKRNQGNLYDKAGKVRKHATEQEKTEEGLGPNIKSIVTMLMLMLLMMFAVHCTWVTSNAYSSPSVVLASYNHDGTRNILDDFREAYFWLRQNTDEHARVMSWWDYGYQIAGMANRTTLVDNNTWNNSHIALVGKAMSSNETAAYKIMRTLDVDYVLVIFGGVIGYSGDDINKFLWMVRIAEGEHPKDIRESDYFTPQGEFRVDKAGSPTLLNCLMYKMSYYRFGEMQLDFRTPPGFDRTRNAEIGNKDIKFKHLEEAFTSEHWLVRIYKVKAPDNRETLDHKPRVTNIFPKQKYLSKKTTKRKRGYIKNKLVFKKGKKISKKTV [STT3B]	-0.0861	3.35	3.7	-0.175	53.8 °C	54.2 °C
MAETAAGVGRFKTNYAVERKIEPFYKGGKAQLDQTGQHLFCVCGTRVNILEVASGAVLRSLEQEDQEDITAFDLSPDNEVLVTASRALLLAQWAWQEGSVTRLWKAIHTAPVATMAFDPTSTLLATGGCDGAVRVWDIVRHYGTHHFRGSPGVVHLVAFHPDPTRLLLFSSATDAAIRVWSLQDRSCLAVLTAHYSAVTSLAFSADGHTMLSSGRDKICIIWDLQSCQATRTVPVFESVEAAVLLPEEPVSQLGVKSPGLYFLTAGDQGTLRVWEAASGQCVYTQAQPPGPGQELTHCTLAHTAGVVLTATADHNLLLYEARSLRLQKQFAGYSEEVLDVRFLGPEDSHVVVASNSPCLKVFELQTSACQILHGHTDIVLALDVFRKGWLFASCAKDQSVRIWRMNKAGQVMCVAQGSGHTHSVGTVCCSRLKESFLVTGSQDCTVKLWPLPKALLSKNTAPDNGPILLQAQTTQRCHDKDINSVAIAPNDKLLATGSQDRTAKLWALPQCQLLGVFSGHRRGLWCVQFSPMDQVLATASADGTIKLWALQDFSCLKTFEGHDASVLKVAFVSRGTQLLSSGSDGLVKLWTIKNNECVRTLDAHEDKVWGLHCSRLDDHALTGASDSRVILWKDVTEAEQAEEQARQEEQVVRQQELDNLLHEKRYLRALGLAISLDRPHTVLTVIQAIRRDPEACEKLEATMLRLRRDQKEALLRFCVTWNTNSRHCHEAQAVLGVLLRREAPEELLAYEGVRAALEALLPYTERHFQRLSRTLQAAAFLDFLWHNMKLPVPAAAPTPWETHKGALP [TBL3]	0.233	1.58	-0.746	-0.936	50.6 °C	51.3 °C
MAETEERSLDNFFAKRDKKKKKERSNRAASAAGAAGSAGGSSGAAGAAGGGAGAGTRPGDGGTASAGAAGPGAATKAVTKDEDEWKELEQKEVDYSGLRVQAMQISSEKEEDDNEKRQDPGDNWEEGGGGGGGMEKSSGPWNKTAPVQAPPAPVIVTETPEPAMTSGVYRPPGARLTTTRKTPQGPPEIYSDTQFPSLQSTAKHVESRKDKEMEKSFEVVRHKNRGRDEVSKNQALKLQLDNQYAVLENQKSSHSQYN [CDV3]	0.0994	-2.3	-4.45	-0.0527	57.2 °C	53.4 °C
MAEVKVKVQPPDADPVEIENRIIELCHQFPHGITDQVIQNEMPHIEAQQRAVAINRLLSMGQLDLLRSNTGLLYRIKDSQNAGKMKGSDNQEKLVYQIIEDAGNKGIWSRDIRYKSNLPLTEINKILKNLESKKLIKAVKSVAASKKKVYMLYNLQPDRSVTGGAWYSDQDFESEFVEVLNQQCFKFLQSKAETARESKQNPMIQRNSSFASSHEVWKYICELGISKVELSMEDIETILNTLIYDGKVEMTIIAAKEGTVGSVDGHMKLYRAVNPIIPPTGLVRAPCGLCPVFDDCHEGGEISPSNCIYMTEWLEF [POLR3F]	-0.0255	-0.67	-1.78	0.528	52.4 °C	52.7 °C
MAFAETYPAASSLPNGDCGRPRARPGGNRVTVVLGAQWGDEGKGKVVDLLAQDADIVCRCQGGNNAGHTVVVDSVEYDFHLLPSGIINPNVTAFIGNGVVIHLPGLFEEAEKNVQKGKGLEGWEKRLIISDRAHIVFDFHQAADGIQEQQRQEQAGKNLGTTKKGIGPVYSSKAARSGLRMCDLVSDFDGFSERFKVLANQYKSIYPTLEIDIEGELQKLKGYMEKIKPMVRDGVYFLYEALHGPPKKILVEGANAALLDIDFGTYPFVTSSNCTVGGVCTGLGMPPQNVGEVYGVVKAYTTRVGIGAFPTEQDNEIGELLQTRGREFGVTTGRKRRCGWLDLVLLKYAHMINGFTALALTKLDILDMFTEIKVGVAYKLDGEIIPHIPANQEVLNKVEVQYKTLPGWNTDISNARAFKELPVNAQNYVRFIEDELQIPVKWIGVGKSRESMIQLF [ADSS]	-0.0978	-2.13	-2.82	0.288	57.5 °C	56.5 °C
MAFANFRRILRLSTFEKRKSREYEHVRRDLDPNEVWEIVGELGDGAFGKVYKAKNKETGALAAAKVIETKSEEELEDYIVEIEILATCDHPYIVKLLGAYYHDGKLWIMIEFCPGGAVDAIMLELDRGLTEPQIQVVCRQMLEALNFLHSKRIIHRDLKAGNVLMTLEGDIRLADFGVSAKNLKTLQKRDSFIGTPYWMAPEVVMCETMKDTPYDYKADIWSLGITLIEMAQIEPPHHELNPMRVLLKIAKSDPPTLLTPSKWSVEFRDFLKIALDKNPETRPSAAQLLEHPFVSSITSNKALRELVAEAKAEVMEEIEDGRDEGEEEDAVDAASTLENHTQNSSEVSPPSLNADKPLEESPSTPLAPSQSQDSVNEPCSQPSGDRSLQTTSPPVVAPGNENGLAVPVPLRKSRPVSMDARIQVAQEKQVAEQGGDLSPAANRSQKASQSRPNSSALETLGGEKLANGSLEPPAQAAPGPSKRDSDCSSLCTSESMDYGTNLSTDLSLNKEMGSLSIKDPKLYKKTLKRTRKFVVDGVEVSITTSKIISEDEKKDEEMRFLRRQELRELRLLQKEEHRNQTQLSNKHELQLEQMHKRFEQEINAKKKFFDTELENLERQQKQQVEKMEQDHAVRRREEARRIRLEQDRDYTRFQEQLKLMKKEVKNEVEKLPRQQRKESMKQKMEEHTQKKQLLDRDFVAKQKEDLELAMKRLTTDNRREICDKERECLMKKQELLRDREAALWEMEEHQLQERHQLVKQQLKDQYFLQRHELLRKHEKEREQMQRYNQRMIEQLKVRQQQEKARLPKIQRSEGKTRMAMYKKSLHINGGGSAAEQREKIKQFSQQEEKRQKSERLQQQQKHENQMRDMLAQCESNMSELQQLQNEKCHLLVEHETQKLKALDESHNQNLKEWRDKLRPRKKALEEDLNQKKREQEMFFKLSEEAECPNPSTPSKAAKFFPYSSADAS [STK10]	-0.0397	1.19	2.43	0.0626	48.1 °C	48.2 °C
MAFNFGAPSGTSGTAAATAAPAGGFGGFGTTSTTAGSAFSFSAPTNTGTTGLFGGTQNKGFGFGTGFGTTTGTSTGLGTGLGTGLGFGGFNTQQQQQTTLGGLFSQPTQAPTQSNQLINTASALSAPTLLGDERDAILAKWNQLQAFWGTGKGYFNNNIPPVEFTQENPFCRFKAVGYSCMPSNKDEDGLVVLVFNKKETEIRSQQQQLVESLHKVLGGNQTLTVNVEGTKTLPDDQTEVVIYVVERSPNGTSRRVPATTLYAHFEQANIKTQLQQLGVTLSMTRTELSPAQIKQLLQNPPAGVDPIIWEQAKVDNPDSEKLIPVPMVGFKELLRRLKVQDQMTKQHQTRLDIISEDISELQKNQTTSVAKIAQYKRKLMDLSHRTLQVLIKQEIQRKSGYAIQADEEQLRVQLDTIQGELNAPTQFKGRLNELMSQIRMQNHFGAVRSEERYYIDADLLREIKQHLKQQQEGLSHLISIIKDDLEDIKLVEHGLNETIHIRGGVFS [NUP54]	0.0698	-3.43	-5.53	0.299	51.5 °C	49 °C
MAFPPRRRLRLGPRGLPLLLSGLLLPLCRAFNLDVDSPAEYSGPEGSYFGFAVDFFVPSASSRMFLLVGAPKANTTQPGIVEGGQVLKCDWSSTRRCQPIEFDATGNRDYAKDDPLEFKSHQWFGASVRSKQDKILACAPLYHWRTEMKQEREPVGTCFLQDGTKTVEYAPCRSQDIDADGQGFCQGGFSIDFTKADRVLLGGPGSFYWQGQLISDQVAEIVSKYDPNVYSIKYNNQLATRTAQAIFDDSYLGYSVAVGDFNGDGIDDFVSGVPRAARTLGMVYIYDGKNMSSLYNFTGEQMAAYFGFSVAATDINGDDYADVFIGAPLFMDRGSDGKLQEVGQVSVSLQRASGDFQTTKLNGFEVFARFGSAIAPLGDLDQDGFNDIAIAAPYGGEDKKGIVYIFNGRSTGLNAVPSQILEGQWAARSMPPSFGYSMKGATDIDKNGYPDLIVGAFGVDRAILYRARPVITVNAGLEVYPSILNQDNKTCSLPGTALKVSCFNVRFCLKADGKGVLPRKLNFQVELLLDKLKQKGAIRRALFLYSRSPSHSKNMTISRGGLMQCEELIAYLRDESEFRDKLTPITIFMEYRLDYRTAADTTGLQPILNQFTPANISRQAHILLDCGEDNVCKPKLEVSVDSDQKKIYIGDDNPLTLIVKAQNQGEGAYEAELIVSIPLQADFIGVVRNNEALARLSCAFKTENQTRQVVCDLGNPMKAGTQLLAGLRFSVHQQSEMDTSVKFDLQIQSSNLFDKVSPVVSHKVDLAVLAAVEIRGVSSPDHVFLPIPNWEHKENPETEEDVGPVVQHIYELRNNGPSSFSKAMLHLQWPYKYNNNTLLYILHYDIDGPMNCTSDMEINPLRIKISSLQTTEKNDTVAGQGERDHLITKRDLALSEGDIHTLGCGVAQCLKIVCQVGRLDRGKSAILYVKSLLWTETFMNKENQNHSYSLKSSASFNVIEFPYKNLPIEDITNSTLVTTNVTWGIQPAPMPVPVWVIILAVLAGLLLLAVLVFVMYRMGFFKRVRPPQEEQEREQLQPHENGEGNSET [ITGAV]	-0.152	-1.75	-1.34	0.295	56 °C	54.8 °C
